1 substance from publication doi:10.1101/2022.04.29.490041 can be followed below.

This experiment deals with NSF_(E326Q):GFP (dominant-negative variant of NSF, GFP-tagged) (Arabidopsis thaliana) (UniProt Q9M0Y8). The experiment is described as follows: co-IP.
UniProt Q9M0Y8, sequence (Q9M0Y8 whole entry E326Q): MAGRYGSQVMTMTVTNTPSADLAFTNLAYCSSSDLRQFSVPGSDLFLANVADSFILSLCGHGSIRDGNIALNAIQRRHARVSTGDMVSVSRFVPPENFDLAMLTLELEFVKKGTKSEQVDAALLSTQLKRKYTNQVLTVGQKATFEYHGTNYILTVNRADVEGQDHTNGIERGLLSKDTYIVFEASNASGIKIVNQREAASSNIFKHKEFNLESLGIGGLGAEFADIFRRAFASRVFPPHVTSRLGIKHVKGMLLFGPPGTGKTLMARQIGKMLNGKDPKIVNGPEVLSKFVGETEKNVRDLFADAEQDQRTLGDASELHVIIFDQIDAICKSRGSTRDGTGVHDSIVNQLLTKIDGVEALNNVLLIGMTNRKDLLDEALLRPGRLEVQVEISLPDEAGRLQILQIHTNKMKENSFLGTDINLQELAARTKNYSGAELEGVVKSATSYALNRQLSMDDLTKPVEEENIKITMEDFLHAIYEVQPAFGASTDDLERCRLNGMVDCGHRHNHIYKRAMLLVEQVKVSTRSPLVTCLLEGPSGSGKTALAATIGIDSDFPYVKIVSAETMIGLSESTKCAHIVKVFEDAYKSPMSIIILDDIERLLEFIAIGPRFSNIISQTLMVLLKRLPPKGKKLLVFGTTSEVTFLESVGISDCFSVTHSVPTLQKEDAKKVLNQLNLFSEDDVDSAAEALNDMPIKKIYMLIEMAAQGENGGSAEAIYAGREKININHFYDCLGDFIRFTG

On to “KNOLLE (cytokinesis-specific Qa-SNARE) (natural protein)”, for which the fold increase of co-precipitation relative to wild-type NSF stood at 38 fold.
